Results as given in US20250002588A1 (DIAGONAL THERAPEUTICS, published 2025).
Changes are numbered by the printed parent chain.

B1: DGL631 (bispecific antibody)
chain 1: not shown
chain 2: EVQLLESGGGLVQPGGSLRLSCAASGFTFSNAWMNWVRQAPGKGLEWVSSISSSSSYIYYADSVKGRFTISRDNSKNTLYLQMNSLRAEDTAVYYCARAVAAGGMFWGLDQWGQGTLVTVTSSGGGGSGGGGSGGGGSQSVLTQPPSASGTPGQRVTISCSGSRSNIGSNSVHWYQQLPGTAPKLLIYGNSNRPSGVPDRFSGSKSGTSASLAISGLRSEDEADYYCQSYDSSLNDHVVFGGGTKLTVLDKTHTCPPCPAPEAAGAPSVFLFPPKPKDTLMISRTPEVTCVVVDVSHEDPEVKFNWYVDGVEVHNAKTKPREEQYNSTYRVVSVLTVLHQDWLNGKEYKCKVSNKALPAPIEKTISKAKGQPREPQVCTLPPSRDELTKNQVSLSCAVKGFYPSDIAVEWESNGQPENNYKTTPPVLDSDGSFFLVSKLTVDKSRWQQGNVFSCSVMHEALHNHYTQKSLSLSPGWSHPQFEK
B2: DGL621 (bispecific antibody)
chain 1: not shown
chain 2: B1 chain 2
B3: DGL622 (bispecific antibody)
chain 1: not shown
chain 2: B1 chain 2
B4: DGL623 (bispecific antibody)
chain 1: not shown
chain 2: B1 chain 2
B5: DGL630 (bispecific antibody)
chain 1: not shown
chain 2: B1 chain 2
B6: DGL632 (bispecific antibody)
chain 1: not shown
chain 2: B1 chain 2
B7: DGL639 (bispecific antibody)
chain 1: EVQLLESGGGLVQPGGSLRLSCAASGFTFSDYYMTWIRQAPGKGLEWVSSISGGSTYYADSRKGRFTISRDNSENTLYLQMNSLRAEDTAVYYCARNVTSGGYFGSFGLDLWGQGTLVTVSSGGGGSGGGGSGGGGSQSVLTQPPSASGTPGQRVTISCTGSSSNIGAGYDVHWYQQLPGTAPKLLIYRSNQRPSGVPDRFSGSKSGTSASLAISGLRSEDEADYYCSSYAGNYNLVFGGGTKLTVLDKTHTCPPCPAPEAAGAPSVFLFPPKPKDTLMISRTPEVTCVVVDVSHEDPEVKFNWYVDGVEVHNAKTKPREEQYNSTYRVVSVLTVLHQDWLNGKEYKCKVSNKALPAPIEKTISKAKGQPREPQVCTLPPSRDELTKNQVSLSCAVKGFYPSDIAVEWESNGQPENNYKTTPPVLDSDGSFFLVSKLTVDKSRWQQGNVFSCSVMHEALHNHYTQKSLSLSPGWSHPQFEK
chain 2: not shown
B8: DGL636 (bispecific antibody)
chain 1: B7 chain 1 with N97W, V98E, G101S, Y103G, F107G, D110S, L111H
chain 2: not shown
B9: DGL637 (bispecific antibody)
chain 1: B7 chain 1 with N97L, V98T, T99V, S100D, Y103G, F104Y, F107G
chain 2: not shown
B10: DGL638 (bispecific antibody)
chain 1: B7 chain 1 with V98E, T99V, F104Y, S106E, D110S
chain 2: not shown
B11: DGL640 (bispecific antibody)
chain 1: B7 chain 1 with N97W, V98E, F104Y, F107G, D110T, L111I
chain 2: not shown
B12: DGL642 (bispecific antibody)
chain 1: B1 chain 2 with A99S, V100N, A101G, A102S, M105S, F106T, W107Y, G108P, Q111L
chain 2: not shown
B13: DGL643 (bispecific antibody)
chain 1: B1 chain 2 with A99S, V100N, A101G, A102S, M105S, F106D, W107Y, G108P, Q111L
chain 2: not shown
B14: DGL646 (bispecific antibody)
chain 1: B1 chain 2 with A101G, G103S, G104T, M105V, F106Y, W107F
chain 2: not shown
B15: DGL650 (bispecific antibody)
chain 1: B1 chain 2 with N31L, S55T, M105F
chain 2: not shown
B16: DGL861 (bispecific antibody)
chain 1: not shown
chain 2: EVQLLESGGGLVQPGGSLRLSCAASGFTFSDYYMNWIRQAPGKGLEWVSSISGGSTYYADSVKGRFTISRDNSENTLYLQMNSLRAEDTAVYYCARDFGVAGWFGQFGMDVWGQGTLVTVSSGGGGSGGGGSGGGGSQSVLTQPPSASGTPGQRVTISCTGSSSNIGAGYDVHWYQQLPGTAPKLLIYRSNQRPSGVPDRFSGSKSGTSASLAISGLRSEDEADYYCSSYAGNYNLVFGGGTKLTVLDKTHTCPPCPAPEAAGAPSVFLFPPKPKDTLMISRTPEVTCVVVDVSHEDPEVKFNWYVDGVEVHNAKTKPREEQYNSTYRVVSVLTVLHQDWLNGKEYKCKVSNKALPAPIEKTISKAKGQPREPQVCTLPPSRDELTKNQVSLSCAVKGFYPSDIAVEWESNGQPENNYKTTPPVLDSDGSFFLVSKLTVDKSRWQQGNVFSCSVMHEALHNHYTQKSLSLSPGWSHPQFEK
B17: DGL862 (bispecific antibody)
chain 1: not shown
chain 2: B16 chain 2
B18: DGL863 (bispecific antibody)
chain 1: not shown
chain 2: B16 chain 2 with Y32S, N35S, W103Y, F107Y
B19: DGL864 (bispecific antibody)
chain 1: not shown
chain 2: B16 chain 2 with Y32S, N35S, W103Y, F107Y
B20: DGL865 (bispecific antibody)
chain 1: not shown
chain 2: B16 chain 2 with Y32S, N35S, W103Y, F107Y
B21: DGL866 (bispecific antibody)
chain 1: not shown
chain 2: B16 chain 2 with Q106Y, F107Y
B22: DGL867 (bispecific antibody)
chain 1: not shown
chain 2: B16 chain 2 with Q106Y, F107Y
B23: DGL868 (bispecific antibody)
chain 1: not shown
chain 2: B16 chain 2 with Q106Y, F107Y

Molecular target: ALK-1/BMPR-2 receptor pair of the PathHunter U2Os dimerization cells (DiscoverX 93-0962C3) (UniProt P37023 22-503; Q13873 27-1038)
Sequence (P37023 22-503, chain 1 of 2): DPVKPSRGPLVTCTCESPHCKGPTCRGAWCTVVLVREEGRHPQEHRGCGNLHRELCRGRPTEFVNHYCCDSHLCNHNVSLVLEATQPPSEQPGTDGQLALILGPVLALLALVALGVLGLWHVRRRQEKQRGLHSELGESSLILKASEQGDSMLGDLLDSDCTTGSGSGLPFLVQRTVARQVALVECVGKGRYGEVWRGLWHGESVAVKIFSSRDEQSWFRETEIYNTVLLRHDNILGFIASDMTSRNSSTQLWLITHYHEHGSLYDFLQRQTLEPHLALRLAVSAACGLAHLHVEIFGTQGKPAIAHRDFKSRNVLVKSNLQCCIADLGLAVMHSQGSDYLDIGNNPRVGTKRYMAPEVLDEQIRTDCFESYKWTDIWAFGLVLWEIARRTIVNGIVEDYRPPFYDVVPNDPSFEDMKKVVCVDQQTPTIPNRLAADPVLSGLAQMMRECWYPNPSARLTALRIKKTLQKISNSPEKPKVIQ
Sequence (Q13873 27-1038, chain 2 of 2): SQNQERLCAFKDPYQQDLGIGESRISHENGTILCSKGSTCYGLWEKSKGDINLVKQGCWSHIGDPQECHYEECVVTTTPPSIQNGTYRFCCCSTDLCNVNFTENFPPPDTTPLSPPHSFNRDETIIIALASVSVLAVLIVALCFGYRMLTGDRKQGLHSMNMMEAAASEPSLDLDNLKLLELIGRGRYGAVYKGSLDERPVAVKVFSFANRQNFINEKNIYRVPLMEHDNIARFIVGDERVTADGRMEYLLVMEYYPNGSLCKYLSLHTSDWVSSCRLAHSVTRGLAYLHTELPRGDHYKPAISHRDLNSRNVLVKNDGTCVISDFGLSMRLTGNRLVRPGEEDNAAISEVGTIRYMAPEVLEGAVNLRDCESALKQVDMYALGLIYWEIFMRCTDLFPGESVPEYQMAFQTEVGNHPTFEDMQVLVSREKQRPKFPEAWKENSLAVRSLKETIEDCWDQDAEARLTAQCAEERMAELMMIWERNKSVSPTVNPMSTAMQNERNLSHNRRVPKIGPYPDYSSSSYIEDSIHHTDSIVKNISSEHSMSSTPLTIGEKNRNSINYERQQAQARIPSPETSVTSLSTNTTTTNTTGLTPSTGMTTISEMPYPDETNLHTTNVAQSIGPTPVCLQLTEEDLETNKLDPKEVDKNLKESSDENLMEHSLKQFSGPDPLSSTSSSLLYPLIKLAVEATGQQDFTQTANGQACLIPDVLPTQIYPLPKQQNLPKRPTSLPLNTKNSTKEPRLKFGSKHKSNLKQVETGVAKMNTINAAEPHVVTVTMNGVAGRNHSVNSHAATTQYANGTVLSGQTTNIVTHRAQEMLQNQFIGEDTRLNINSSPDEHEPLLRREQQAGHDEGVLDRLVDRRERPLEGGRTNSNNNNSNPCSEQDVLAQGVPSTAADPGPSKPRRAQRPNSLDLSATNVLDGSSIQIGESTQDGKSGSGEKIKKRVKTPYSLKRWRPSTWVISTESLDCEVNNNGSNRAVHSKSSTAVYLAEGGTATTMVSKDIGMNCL
Assay: cell-based or functional assay

Binder | % Emax BMP9 [%] | Emax (RLU)
B1 | 13 | 470000
B2 | 30 | 1.09e+06
B3 | 25 | 936000
B4 | 30 | 1.11e+06
B5 | 5 | 168000
B6 | 4 | 130000
B7 | 41 | 752000
B8 | 20 | 362000
B9 | 21 | 382000
B10 | 80 | 1.47e+06
B11 | 83 | 1.53e+06
B12 | 14 | 255000
B13 | 13 | 246000
B14 | 18 | 333000
B15 | 43 | 801000
B16 | 81 | 2.08e+06
B17 | 83 | 2.13e+06
B18 | 24 | 604000
B19 | 22 | 553000
B20 | 30 | 755000
B21 | 45 | 1.15e+06
B22 | 58 | 1.48e+06
B23 | 67 | 1.71e+06

Molecular target: human ALK1 protein (Sino Biological, #10066-H08H) (human, UniProt P37023 22-118)
Sequence (P37023 22-118 limits assumed): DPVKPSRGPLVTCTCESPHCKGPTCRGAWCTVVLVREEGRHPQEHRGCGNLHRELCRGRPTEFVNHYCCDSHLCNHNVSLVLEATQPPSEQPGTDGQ
Assay: ELISA, coated human ALK1
Procedure: These binders were then tested using an ELISA assay. High binding plates (Corning, 9018) were coated with either 2 μg/ml of human BMPRII protein (Sino Biological, #10551-H08H) or 2 μg/ml of human ALK1 protein (Sino Biological, #10066-H08H) overnight at 4C. The plates were then washed three times with wash buffer (R&D Systems, WA126). […] The plates were then washed three times with wash buffer and DGL antibodies or controls, which were diluted with PBS and 0.1% BSA. The antibodies were incubated for one hour at room temperature and then the plates were washed three times with wash buffer. The plates were then incubated with mouse anti-human IgG Fc secondary—HRP (diluted with PBS/0.1% BSA); 100 ul per well at 2 μg/ml and incubated at room temperature for one hour. The plate was washed three times in wash buffer and then 100 ul TMB (R&D Systems, DY9998B, substrate reagent pack). After the wells turn blue, 50 ul of stop solution (R&D Systems, DY994) was added to each well and the absorbance of the plate was read at 450 nm. results can be found in Table 8.

Binder | Abs450 1 nM | Abs450 10 nM | Abs450 100 nM
B1 | 0.07 | 0.19 | 0.7
B2 | 0.17 | 0.95 | 1.58
B3 | 0.15 | 0.75 | 1.58
B4 | 0.14 | 0.61 | 1.43
B5 | 0.07 | 0.07 | 0.08
B6 | 0.06 | 0.05 | 0.06
B7 | 0.09 | 0.46 | 1.39
B8 | 0.11 | 0.56 | 1.45
B9 | 0.16 | 0.77 | 1.48
B10 | 0.05 | 0.22 | 1.02
B11 | 0.09 | 0.47 | 1.4
B12 | 0.08 | 0.09 | 0.5
B13 | 0.04 | 0.13 | 0.71
B14 | 0.06 | 0.15 | 0.8
B15 | 0.08 | 0.15 | 0.65
